Test results: article PMC10397247

T1: 4H3057-bH
T1 chain: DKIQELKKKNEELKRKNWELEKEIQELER

T2: 4H319-bH
T2 chain: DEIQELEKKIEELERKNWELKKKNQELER

T3: 4H3277-bH
T3 chain: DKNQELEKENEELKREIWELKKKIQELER

T4: 4H348-bH
T4 chain: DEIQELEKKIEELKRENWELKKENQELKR

T5: 4H40-bH
T5 chain: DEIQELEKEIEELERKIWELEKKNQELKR

T6: 4H477-bH
T6 chain: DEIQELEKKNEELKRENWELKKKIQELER

T7: 4H492-bH
T7 chain: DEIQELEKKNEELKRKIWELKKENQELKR

T8: 4H741-bH
T8 chain: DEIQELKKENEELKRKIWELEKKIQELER

T9: O7-bN
T9 chain: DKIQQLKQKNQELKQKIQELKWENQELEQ

T10: O8-bN
T10 chain: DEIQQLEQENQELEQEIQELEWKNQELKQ

T11: O9-bN
T11 chain: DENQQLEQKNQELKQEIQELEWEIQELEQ

T12: 4H370-bN
T12 chain: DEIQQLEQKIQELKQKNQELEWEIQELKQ

T13: 4H3782-bN
T13 chain: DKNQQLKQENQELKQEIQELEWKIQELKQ

T14: 4H3843-bN
T14 chain: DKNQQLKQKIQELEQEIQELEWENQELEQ

T15: 4H4001-bN
T15 chain: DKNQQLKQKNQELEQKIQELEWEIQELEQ

T16: 4H462-bN
T16 chain: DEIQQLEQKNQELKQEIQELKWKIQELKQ

T17: 4H568-bN
T17 chain: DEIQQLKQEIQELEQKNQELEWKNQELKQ

T18: 4H607-bN
T18 chain: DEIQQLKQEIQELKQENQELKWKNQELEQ

T19: 4H687-bN
T19 chain: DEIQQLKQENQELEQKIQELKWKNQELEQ

T20: 4H72-bN
T20 chain: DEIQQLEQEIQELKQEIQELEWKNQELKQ

T21: 4H797-bN
T21 chain: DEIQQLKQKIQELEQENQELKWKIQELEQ

T22: 4H883-bN
T22 chain: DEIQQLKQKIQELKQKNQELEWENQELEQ

T23: 4H918-bN
T23 chain: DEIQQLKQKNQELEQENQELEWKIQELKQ

T24: 4H953-bN
T24 chain: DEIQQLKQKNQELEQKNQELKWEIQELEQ

T25: 4H967-bN
T25 chain: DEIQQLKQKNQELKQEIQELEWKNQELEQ

T26: 4H338-bN
T26 chain: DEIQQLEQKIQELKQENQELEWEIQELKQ

T27: 4H3427-bN
T27 chain: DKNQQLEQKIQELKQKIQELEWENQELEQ

T28: 4H3855-bN
T28 chain: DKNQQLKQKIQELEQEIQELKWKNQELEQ

T29: 4H454-bN
T29 chain: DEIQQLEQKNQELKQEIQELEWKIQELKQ

T30: 4H717-bN
T30 chain: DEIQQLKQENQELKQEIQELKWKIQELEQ

T31: 4H754-bN
T31 chain: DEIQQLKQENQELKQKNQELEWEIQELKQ

T32: 4H908-bN
T32 chain: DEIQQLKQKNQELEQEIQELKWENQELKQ

T33: O7-bH
T33 chain: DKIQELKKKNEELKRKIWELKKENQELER

T34: O8-bH
T34 chain: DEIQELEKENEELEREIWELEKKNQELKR

T35: O9-bH
T35 chain: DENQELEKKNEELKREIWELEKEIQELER


How the values were obtained:
Experiment in all cases: two-hybrid library CCNG1;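 further: natural log of median RNA to DNA barcode read ratio; higher means stronger binding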
4H3057-bH = biological target: T1, 4H3057-bH
4H319-bH = biological target: T2, 4H319-bH
4H3277-bH = biological target: T3, 4H3277-bH
4H348-bH = biological target: T4, 4H348-bH
4H40-bH = biological target: T5, 4H40-bH
4H477-bH = biological target: T6, 4H477-bH
4H492-bH = biological target: T7, 4H492-bH
4H741-bH = biological target: T8, 4H741-bH
O7-bN = biological target: T9, O7-bN
O8-bN = biological target: T10, O8-bN
O9-bN = biological target: T11, O9-bN
4H370-bN = biological target: T12, 4H370-bN
4H3782-bN = biological target: T13, 4H3782-bN
4H3843-bN = biological target: T14, 4H3843-bN
4H4001-bN = biological target: T15, 4H4001-bN
4H462-bN = biological target: T16, 4H462-bN
4H568-bN = biological target: T17, 4H568-bN
4H607-bN = biological target: T18, 4H607-bN
4H687-bN = biological target: T19, 4H687-bN
4H72-bN = biological target: T20, 4H72-bN
4H797-bN = biological target: T21, 4H797-bN
4H883-bN = biological target: T22, 4H883-bN
4H918-bN = biological target: T23, 4H918-bN
4H953-bN = biological target: T24, 4H953-bN
4H967-bN = biological target: T25, 4H967-bN
4H338-bN = biological target: T26, 4H338-bN
4H3427-bN = biological target: T27, 4H3427-bN
4H3855-bN = biological target: T28, 4H3855-bN
4H454-bN = biological target: T29, 4H454-bN
4H717-bN = biological target: T30, 4H717-bN
4H754-bN = biological target: T31, 4H754-bN
4H908-bN = biological target: T32, 4H908-bN
O7-bH = biological target: T33, O7-bH
O8-bH = biological target: T34, O8-bH
O9-bH = biological target: T35, O9-bH

Row | Binder | interaction score (O7-bN) | interaction score (O8-bN) | interaction score (O9-bN) | interaction score (4H3782-bN) | interaction score (4H4001-bN) | interaction score (4H568-bN) | interaction score (4H607-bN) | interaction score (4H687-bN) | interaction score (4H72-bN) | interaction score (4H797-bN) | interaction score (4H883-bN) | interaction score (4H918-bN) | interaction score (4H953-bN) | interaction score (4H967-bN) | further results
1 | DKIQELKKKNEELKRKNWELEKEIQELER [4H3057-bH] |  |  |  |  |  |  |  |  |  |  |  |  |  |  | interaction score (4H3057-bH): -0.611; interaction score (4H319-bH): -1.81; interaction score (4H3277-bH): -1.01; interaction score (4H348-bH): -0.361; interaction score (4H40-bH): -1.77; interaction score (4H477-bH): -1.13; interaction score (4H492-bH): -1.13; interaction score (4H741-bH): -1.52
2 | DEIQQLEQKIQELKQKNQELEWEIQELKQ [4H370-bN] |  |  |  | -0.329 | -0.655 | 0.649 | -0.679 | -1.17 | -0.189 | -0.598 | -1.39 | -0.831 | -1.96 | -0.814 | interaction score (4H370-bN): 0.966; interaction score (4H3843-bN): -0.715; interaction score (4H462-bN): -1.49
3 | DEIQQLEQKIQELKQENQELEWEIQELKQ [4H338-bN] |  |  |  | -0.966 | -0.385 | 0.409 | -1.19 | 0.0368 | -0.606 | -1.45 | -1.26 | -0.295 | -1.33 | 0.117 | interaction score (4H338-bN): -1.01; interaction score (4H3427-bN): -0.828; interaction score (4H3855-bN): -0.12; interaction score (4H454-bN): -0.967; interaction score (4H717-bN): -1.16; interaction score (4H754-bN): -0.701; interaction score (4H908-bN): -0.434
4 | DKNQELKKKIEELKRENWELEKKIQELKR [O6-bH] |  |  |  |  |  |  |  |  |  |  |  |  |  |  | interaction score (O7-bH): 0.89; interaction score (O8-bH): 0.914; interaction score (O9-bH): -0.446

Second part, led by results:

Row | interaction score (O7-bN) | interaction score (O8-bN) | interaction score (O9-bN) | interaction score (4H3782-bN) | interaction score (4H4001-bN) | interaction score (4H568-bN) | interaction score (4H607-bN) | interaction score (4H687-bN) | interaction score (4H72-bN) | interaction score (4H797-bN) | interaction score (4H883-bN) | interaction score (4H918-bN) | interaction score (4H953-bN) | interaction score (4H967-bN) | Binder | further results
5 | -1.44 | 0.737 | -1.53 |  |  |  |  |  |  |  |  |  |  |  | DKIQQLKQKNQELKQKIQELKWENQELEQ [O7-bN] | 
6 | -0.589 | -0.754 | -1.38 |  |  |  |  |  |  |  |  |  |  |  | DKNQQLKQKIQELKQENQELEWKIQELKQ [O6-bN] | 
